The results in this text go back to article PMC9536601.

Test [1] has as its target chimeric hexon of Ad5:H1.6 (Ad5 vector, hexon residues 112-593 from Ad1 hexon, HVR7 IGVTDRY), on the virion (human adenovirus type 5 | human adenovirus type 1) (UniProt P04133). The test can be described thus: SPR; Biacore T200; about 300 to 5,000 RU of Ad virions immobilised on a CM5 chip, coagulation factors flowed over at four concentrations, 50 uL/min; 10 mM HEPES, 150 mM NaCl, 1 mM CaCl2, 0.5 mM MgCl2, 0.1% BSA, 0.05% polysorbate 20, pH 7.4; global fit to a 1:1 kinetic interaction model, double referencing. In general terms: SPR reads the build-up and loss of mass on a sensor chip optically.

Test [2] addresses chimeric hexon of Ad5:H6.3 (Ad5 vector, hexon residues 112-593 from Ad6 hexon, HVR7 IGNTETF), on the virion (human adenovirus type 5 | human adenovirus type 6) (UniProt P04133). The test is described as above.

One may read the Kd as the free concentration of one partner at which half of the binding sites on the other are occupied at equilibrium, for simple one-to-one binding. Read a low Kd as higher affinity. “mouse coagulation factor X (from UniProt O88947 41-481) (natural protein)”: the Kd in test [1] came to 4.2 µM; in test [2], 1.2 µM.
Turning to “mouse prothrombin (coagulation factor II) (from UniProt P19221 44-618) (natural protein)”, the dissociation constant (Kd) in test [2] came to 1.6 µM.
